For this assay, the target named is human dipeptidyl peptidase 4 (DPP4) expressed by cells (human) (UniProt P27487). The assay can be described thus: cell-based or functional assay.
Sequence of UniProt P27487 (P27487 whole entry): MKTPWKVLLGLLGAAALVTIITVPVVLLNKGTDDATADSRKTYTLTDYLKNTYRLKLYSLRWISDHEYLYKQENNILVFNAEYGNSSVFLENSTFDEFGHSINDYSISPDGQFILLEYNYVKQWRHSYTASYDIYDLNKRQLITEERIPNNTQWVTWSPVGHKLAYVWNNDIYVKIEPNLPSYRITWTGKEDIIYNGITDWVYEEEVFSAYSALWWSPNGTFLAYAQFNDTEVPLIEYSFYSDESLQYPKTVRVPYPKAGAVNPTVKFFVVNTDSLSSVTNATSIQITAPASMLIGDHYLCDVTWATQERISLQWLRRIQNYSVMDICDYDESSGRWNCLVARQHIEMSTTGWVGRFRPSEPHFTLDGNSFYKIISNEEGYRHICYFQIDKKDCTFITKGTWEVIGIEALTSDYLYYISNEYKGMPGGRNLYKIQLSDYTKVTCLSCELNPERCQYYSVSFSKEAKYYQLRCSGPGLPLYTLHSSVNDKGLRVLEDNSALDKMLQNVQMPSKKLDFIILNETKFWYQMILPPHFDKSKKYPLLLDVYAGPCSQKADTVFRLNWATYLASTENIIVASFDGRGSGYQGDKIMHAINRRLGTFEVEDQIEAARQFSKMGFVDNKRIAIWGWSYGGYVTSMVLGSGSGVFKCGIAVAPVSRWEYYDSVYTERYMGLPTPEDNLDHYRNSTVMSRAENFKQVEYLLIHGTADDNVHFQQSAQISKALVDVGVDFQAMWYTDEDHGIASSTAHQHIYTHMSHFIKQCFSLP

As for “S377-588-Fc (residues 377-588 of MERS-CoV S protein fused to Fc of human IgG) (Fc fusion)”, the inhibition of CPE formation caused by MERS-CoV infection in Calu-3 cells is 3 µg/mL.

Source of the values: patent publication EP3541419B1.
